# Measurements reported in the supplement of paper PMC9732359.
# ± gives the uncertainty stated by the source.
# Experiment: protein stability index of a GFP-peptide fusion (yeast GPS) (PSI 1-4); higher = more stable; sorted into four equal gates, so the index is relative within each strain
# Method in brief: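 Tiled yeast protein peptides of 17 residues were each joined downstream of GFP, on plasmids that also express Cherry. The pooled library was maintained in yeast, and mid-log cultures in leucine-free medium were sorted into four equal gates on the GFP/Cherry ratio. Plasmids from every gate were amplified by PCR and sequenced on Illumina, with barcodes linking reads to strains. The protein stability index of a peptide is its gate-number-weighted read frequency summed over the gates.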
Sequence,protein stability index (pdr5∆),protein stability index (san1∆),protein stability index (ubr1∆),protein stability index (doa10∆)
DHRKRKKSKIQLLDIAE [LIN1],2.8 ± 0.23,3.19 ± 0.17,3.32 ± 0.18,
DHSMILPSGVLSRGDDE [SMC3],2.51 ± 0.082,2.19 ± 0.12,2.39 ± 0.04,3.08 ± 0.094
DICLKLNLDSEQTVEYM [RPN3],3.28 ± 0.2,2.97 ± 0.24,3.07 ± 0.092,3.37 ± 0.23
DIEDALVLNKSSIDRGF [RET1],2.83 ± 0.14,2.24 ± 0.19,2.97 ± 0.22,2.37 ± 0.095
DIGVLEEYARRLAEFKR [SMC4],3.38 ± 0.11,2.74 ± 0.096,3.35 ± 0.077,3.13 ± 0.12
DIICEDSTLILEQLAQH [RPB2],2.56 ± 0.057,2.57 ± 0.084,2.35 ± 0.051,2.24 ± 0.047
DIKANGSIQKGMPHKFY [RPL21A],3.07 ± 0.15,3.07 ± 0.28,3.64 ± 0.14,3.01 ± 0.21
DINPPLVFILAVVGNNM [RRP42],1.78 ± 0.058,1.96 ± 0.082,1.52 ± 0.046,1.84 ± 0.083
DINTIKLQLSFVLQMVG [SRP72],1.88 ± 0.066,1.32 ± 0.11,1.57 ± 0.062,1.26 ± 0.092
DITFFGEALPNKFHKSI [SIR2],2.98 ± 0.1,2.61 ± 0.082,2.64 ± 0.054,3 ± 0.11
DIYKSHLDNSKSVFSSA [RPN1],2.77 ± 0.041,2.67 ± 0.051,2.66 ± 0.063,2.69 ± 0.056
DKDRDTRRKRRQGRSNR [SNF5],3.48 ± 0.16,3.31 ± 0.096,3.55 ± 0.14,3.6 ± 0.23
DKEWVFAALSDSYGQGS [SSN2],3.46 ± 0.1,3.1 ± 0.13,3.34 ± 0.09,3.18 ± 0.11
DKFFTLSAENIEERLVA [SCL1],3.01 ± 0.084,3.06 ± 0.082,3.02 ± 0.069,3.01 ± 0.074
DKFKLNENDLKTYNCLH [SMC1],2.5 ± 0.12,,2.85 ± 0.094,2.7 ± 0.14
DKIAVAVAGLTADAEIL [PRE9],1.65 ± 0.077,1.25 ± 0.21,2.1 ± 0.075,1.5 ± 0.098
DKKLNLNLPLQFSLPNG [SNF12],3.02 ± 0.079,2.62 ± 0.074,2.7 ± 0.075,3.04 ± 0.085
DKKNSSDPNNQSLNEMV [YJL039C/NUP192],3.24 ± 0.11,3.16 ± 0.087,3.35 ± 0.071,3.07 ± 0.1
DKKVLVKVQPEGKYIVD [RPT6],3.28 ± 0.088,3.23 ± 0.036,2.96 ± 0.062,3.23 ± 0.081
DKLDDDGLIAPGVRVSG [RPB2],2.23 ± 0.1,2.48 ± 0.27,1.71 ± 0.11,1.65 ± 0.19
DKLELYVLRNVLRIPEE [MTW1],2.45 ± 0.084,2.94 ± 0.076,3.41 ± 0.12,3 ± 0.13
DKLPQFVDENTFQRVCQ [RPN1],3.28 ± 0.12,3.15 ± 0.062,3.3 ± 0.078,3.04 ± 0.082
DKLWTLIPEDKRDQYLK [RPL28],2.88 ± 0.22,3.13 ± 0.07,3.18 ± 0.24,3.32 ± 0.19
DKLYIHFVQEEPLAFYL [RGR1],2.35 ± 0.045,2.4 ± 0.045,2.32 ± 0.033,2.21 ± 0.041
DKSIDTSSLQLYKFQNF [YML103C/NUP188],3.05 ± 0.086,2.7 ± 0.055,2.99 ± 0.055,2.67 ± 0.064
DLAFGGEANKHHWEDLQ [RPN5],3.31 ± 0.16,3.07 ± 0.11,3.21 ± 0.091,3.09 ± 0.12
DLALPPPPPPPPGYEIE [PRP8],2.98 ± 0.11,2.54 ± 0.14,2.95 ± 0.073,3.08 ± 0.088

Sequence,protein stability index (pdr5∆),protein stability index (san1∆),protein stability index (ubr1∆),protein stability index (doa10∆)
DLDLNEQVRKMYQEWED [NSL1],3.39 ± 0.11,3.26 ± 0.071,2.92 ± 0.11,2.97 ± 0.13
DLDTVLKKDIESLRGIL [SRP72],1.38 ± 0.096,1.37 ± 0.25,1.61 ± 0.089,1.63 ± 0.088
DLEKTERIVVSYEYYNI [SMC2],2.6 ± 0.073,2.71 ± 0.074,2.67 ± 0.045,2.76 ± 0.073
DLESMGLTQLYKKSTEN [MED7],3.13 ± 0.067,2.81 ± 0.067,2.9 ± 0.047,2.9 ± 0.071
DLIAEQVVTDYNILGNL [SSN2],3.11 ± 0.077,2.28 ± 0.11,2.21 ± 0.063,2.52 ± 0.074
DLQKLLKGIQEFGADWY [SWI3],3.07 ± 0.056,3.09 ± 0.043,3.22 ± 0.053,3.1 ± 0.062
DLQNLNLNTDKLKNNAS [YJL039C/NUP192],2.65 ± 0.061,2.94 ± 0.086,2.5 ± 0.057,2.54 ± 0.11
DLRLGSQSLGVSNKFEK [PUP3],3.52 ± 0.16,2.94 ± 0.13,3.62 ± 0.13,3.52 ± 0.14
DLSLNITLHPSFFGPRM [RPB7],1.83 ± 0.1,1.7 ± 0.14,1.55 ± 0.074,2.25 ± 0.22
DLTLDDISLKADLERFF [YJL039C/NUP192],3.35 ± 0.076,3.41 ± 0.036,3.23 ± 0.039,3.29 ± 0.053
DLTNNPQDDDSQSKMMS [MTR3],3.39 ± 0.073,3.09 ± 0.074,3.31 ± 0.055,3.17 ± 0.084
DMANEIILSIDEHHESF [RRP6],2.98 ± 0.093,2.95 ± 0.062,2.9 ± 0.049,3.01 ± 0.068
DMDAQGRSDSNTEEKAE [YGL100W/SEH1],1.67 ± 0.051,1.5 ± 0.14,1.4 ± 0.041,1.57 ± 0.038
DMGMQQELCYPDENHDN [BRN1],3.28 ± 0.06,2.99 ± 0.059,3.33 ± 0.055,3.22 ± 0.073
DMNSNLQVLKRERDGIK [SMC1],2.92 ± 0.065,3.03 ± 0.047,2.78 ± 0.078,3.01 ± 0.093
DNCCDFKVRTNLNDKFG [MED1],3.22 ± 0.2,2.79 ± 0.15,3.08 ± 0.092,2.74 ± 0.19
DNNITEMLEENFPEASK [YCG1],2.22 ± 0.11,2.59 ± 0.09,2.74 ± 0.052,2.48 ± 0.097
DNNNTTNNDSNNKNNSI [MED2],2.86 ± 0.045,2.96 ± 0.038,2.45 ± 0.034,2.83 ± 0.049
DNRTKSTTIKNIDILNR [SMC4],2.07 ± 0.062,1.77 ± 0.15,1.67 ± 0.08,1.85 ± 0.062
DNVSGLTRNAPLDSKDE [SNF2],3.25 ± 0.051,3 ± 0.04,3.13 ± 0.043,2.95 ± 0.063
DNWNAPLIMATCGSKGS [RPO31],2.4 ± 0.11,,2.43 ± 0.075,2.57 ± 0.2
DNWRREFLKWTPNVNVL [ISW2],2.42 ± 0.12,,2.31 ± 0.07,1.46 ± 0.098
DPDNTSFSDENSDDFFM [ESC2],2.39 ± 0.11,2.54 ± 0.09,1.5 ± 0.088,2.31 ± 0.13
DPDTKKVKESPANDQAS [YIL149C/MLP2],3.21 ± 0.078,3.06 ± 0.049,3.12 ± 0.093,3.04 ± 0.084
DPHSASLINSHLKILAS [RPC82],1.38 ± 0.12,1.38 ± 0.19,1.23 ± 0.059,2.15 ± 0.22
DPKLEKCLNYRNVNWIE [ITC1],2.88 ± 0.09,2.96 ± 0.056,2.95 ± 0.046,2.96 ± 0.069
DPLYDITKVPALEFLNT [REC8],2.72 ± 0.093,2.61 ± 0.11,2.62 ± 0.083,2.32 ± 0.069
